Measured values published in publication PMC9633295 (Cancer Science, 2022).
Where a chain is given by its changes, count along the chain named.

Tests used:
[1] = target: T1, recombinant human CD155-Fc fusion protein, WT (human, UniProt P15151 21-343); assay: BLI
T1 sequence (looked up): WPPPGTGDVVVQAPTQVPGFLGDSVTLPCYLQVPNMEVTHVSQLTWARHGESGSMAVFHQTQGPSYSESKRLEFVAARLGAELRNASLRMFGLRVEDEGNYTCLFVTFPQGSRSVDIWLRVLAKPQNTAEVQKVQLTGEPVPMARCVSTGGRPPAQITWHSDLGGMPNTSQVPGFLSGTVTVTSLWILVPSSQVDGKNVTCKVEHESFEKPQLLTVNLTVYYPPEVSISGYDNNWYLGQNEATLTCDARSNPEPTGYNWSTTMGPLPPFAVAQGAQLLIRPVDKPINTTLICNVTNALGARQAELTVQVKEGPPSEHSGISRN

[2] = target: T2, recombinant human CD155-Fc fusion protein, mutant (Ala67Thr) (human, UniProt P15151 21-343, Ala67Thr); assay: BLI
T2 sequence (looked up): T1 sequence (looked up) with A47T

binding result [1]: binds | binding result [2]: binds
B1: His-tagged recombinant human DNAM-1 (receptor, UniProt Q15762 19-254, looked up)
chain: EEVLWHTSVPFAENMSLECVYPSMGILTQVEWFKIGTQQDSIAIFSPTHGMVIRKPYAERVYFLNSTMASNNMTLFFRNASEDDVGYYSCSLYTYPQGTWQKVIQVVQSDSFEAAVPSNSHIVSEPGKNVTLTCQPQMTWPVQAVRWEKIQPRQIDLLTYCNLVHGRNFTSKFPRQIVSNCSHGRWSVIVIPDVTVSDSGLYRCYLQASAGENETFVMRLTVAEGKTDNQYTLFVA
